Molecular target: T1, recombinant BNIP3 (BCL-2 adenovirus E1B 19 kDa interacting protein-3) (mouse, UniProt O55003 1-187, limits assumed, labelled with DyLight 650 for the microarray)
T1 construct: Bought recombinant protein (cusabio); also called recombinant BNIP3 (cusabio)
Assay: peptide microarray, immobilised peptide, labelled recombinant BNIP3 in solution
Procedure: (§1) Interaction studies. For protein-peptide interaction studies, peptide libraries were synthesised and immobilised on microarray slides.
(§2) Microarray. […] As labelling kit a DyLight Microscale Antibody Labeling Kit (Thermo) with label Dylight 650 was used. The assay was performed using the automated TECAN HS4800 microarray processing station. Microarrays were incubated with customer provided samples diluted in blocking buffer for 2 h at 30° C. Before each step, microarrays were washed with washing buffer. Microarrays were scanned using a high-resolution fluorescence scanner. Laser settings and applied resolution were identical for all performed measurements. The resulting images were analyzed und quantified using spot-recognition software GenePix (Molecular Devices). […] For further data evaluation, the so called MMC2 values were determined. The MMC2 equals the mean value of all three instances on the microarray except when the coefficient of variation (CV)—standard-deviation divided by the mean value—is larger 0.5. In this case the mean of the two closest values (MC2) is assigned to MMC2. All steps were performed by JPT Peptide Technologies (Berlin, Germany).

Fluorescence intensity	Binder
2660 arbitrary units	SGEENLQGSWVELHFSN (Peptide immobilised on the microarray; also called BNIP3 4-20) [truncated BNIP3-20A fragment SGEENLQGSWVELHFSN]
4890 arbitrary units	SWVELHFSN (Peptide immobilised on the microarray; also called BNIP3 12-20) [truncated BNIP3-20A fragment SWVELHFSN]
1040 arbitrary units	MSQSGEENLQGSWVELHFSN (Peptide immobilised on the microarray; also called BNIP3 1-20) [BNIP3-20A peptide sequence MSQSGEENLQGSWVELHFSN (BNIP3 amino acids 1-20, wild type)]
14400 arbitrary units	WVELHFSN (Peptide immobilised on the microarray; also called BNIP3 13-20) [truncated BNIP3-20A fragment WVELHFSN]

Molecular target: T1, recombinant BNIP3 (BCL-2 adenovirus E1B …)
Assay: as above
Remark: another data set of the same source
Procedure: as §1, §2

Fluorescence intensity	Binder
1040 arbitrary units	MSQSGEENLQGSWVELHFSN (Peptide immobilised on the microarray; also called BNIP3 1-20) [BNIP3-20A peptide sequence MSQSGEENLQGSWVELHFSN (BNIP3 amino acids 1-20, wild type)]
10200 arbitrary units	MSQSGEENLQYSWVELHFSN (Peptide immobilised on a microarray slide; attachment chemistry not stated., Peptide immobilised on the microarray) [substituted BNIP3-20A peptide MSQSGEENLQYSWVELHFSN (G11 -> Y)]
7040 arbitrary units	MSQSGEENLQGCWVELHFSN (Peptide immobilised on a microarray slide; attachment chemistry not stated., Peptide immobilised on the microarray) [substituted BNIP3-20A peptide MSQSGEENLQGCWVELHFSN (S12 -> C)]
7150 arbitrary units	MSQSGEENLQGSWVCLHFSN (Peptide immobilised on a microarray slide; attachment chemistry not stated., Peptide immobilised on the microarray) [substituted BNIP3-20A peptide MSQSGEENLQGSWVCLHFSN (E15 -> C)]
15000 arbitrary units	MSQSGEENLQGSWVELHFFN (Peptide immobilised on the microarray) [substituted BNIP3-20A peptide MSQSGEENLQGSWVELHFFN (S19 -> F)]
13100 arbitrary units	MSQSGYENLQGSWVELHFSN (Peptide immobilised on a microarray slide; attachment chemistry not stated., Peptide immobilised on the microarray) [substituted BNIP3-20A peptide MSQSGYENLQGSWVELHFSN (E6 -> Y)]
6790 arbitrary units	MSQSGEENLQGSWVELCFSN (Peptide immobilised on a microarray slide; attachment chemistry not stated., Peptide immobilised on the microarray) [substituted BNIP3-20A peptide MSQSGEENLQGSWVELCFSN (H17 -> C)]
7990 arbitrary units	MSQSGEENLQGSWVELYFSN (Peptide immobilised on a microarray slide; attachment chemistry not stated., Peptide immobilised on the microarray) [substituted BNIP3-20A peptide MSQSGEENLQGSWVELYFSN (H17 -> Y)]
